From patent publication US20160326540A1, “Methods and Compositions Employing a Sulfonylurea-Dependent Stabilization Domain” (PIONEER HI-BRED INTERNATIONAL, INC., priority 2013, published 2016)

B1: L1-22: first round library L1 sulfonylurea repressor parental clone (protein)
chain: MGSRLDKSKVINSALELLNEVGIEGLTTRKLAQKLGVEQPTLYWHVKNKRALLDALAIEMMDRHHTHFCPLEGESWQDFLRNTAKSYRCALLSHRDGAKVCLGTAITEKQYETKENNLAFLCQQGFSLENALYARQAVRVFTLGCVLFDQEMQVAKEERETPTTDSMPPLLRQASELLDHQGAEPAFLFGLELIICGLEKQLKSESGS
modifications: Sulfonylurea responsive repressor
notes: first round library L1 sulfonylurea repressor parental clone
B2: L8-3F01: library L8 chlorsulfuron repressor hit, parent for saturation mutagenesis and CsL3 (protein)
chain: MARLDKSKVINSALELLNEVGIEGLTTRKLAQKLGVEQPTLYWHVKNKRALLDALAIEMMDRHQTHYLPLEGESWQDFLRNNAKSCRRALLSHRDGAKVCLGTRWTEQQYETAENMLAFLTQQGFSLENALYAVSAVRVFTLGAVLFDQESQVAKEERETPTTDSMPPLLRQAWELKDHQGAEPAFLFGLELIIAGLEKQLKRESGS
modifications: Sulfonylurea responsive repressor
notes: library L8 chlorsulfuron repressor hit, parent for saturation mutagenesis and CsL3
B3: L1-29: first round library L1 sulfonylurea repressor parental clone (protein)
chain: MGSRLDKSKVINSALELLNEVGIEGLTTRKLAQKLGVEQPTLYWHVKNKRALLDALAIEMMDRHQTHFCPLEGESWQDFLRNTAKSMRCALLSHRDGAKVWLGTRWTEKQYETPENMLAFLCQQGFSLENALYAWSAVCNFTLGCVLSDQERQVAKEERETPTTDSMPPLLRQAWELSDHQGAEPAFLFGLELIICGLEKQLKCESGS
modifications: Sulfonylurea responsive repressor
notes: as for B1
B4: L6-1B03 (protein)
chain: MGSRLDKSKVINSALELLNEVGIEGLTTRKLAQKLGVEQPTLYWHVKNKRALLDALAIEMMDRHATHICPLEGESWQDFLRNNAKSMRCALLSHRDGAKVCLGTRWTEQQYEAAENMLAFLCQQGFSLENALYAVSAVRVFTLGCVLFDQESQVAKEERETPTTASMPPLLRQAWELKDHQGAEPAFLFGLELIICGLEKQLKCESGS
modifications: Sulfonylurea responsive repressor
B5: L6-3H02 (protein)
chain: MGSRLDKSKVINSALELLNEVGIEGLTTRKLAQKLGVEQPTLYWHVKNKRALLDALAIEMMDRHATHYCPLEGESWQDFLRNTAKSMRCALLSHRDGAKVCLGTRWTEQHYESAENMLAFLCQQGFSLENALYAVSAVRVFTLGCVLFDQESQVAKEERETPTTASMPPLVRQAWELKVHQGAEPAFLFGLELIICGLEKQLKCESGS
modifications: Sulfonylurea responsive repressor
B6: L6-5F05 (protein)
chain: MGSRLDKSKVINSALELLNEVGIEGLTTRKLAQKLGVEQPTLYWHVKNKRALLDALAIEMMDRHATHICPLEGESWQDFLRNNAKSMRCALLSHRDGAKVCLGTRWTEQQYEAAENQLAFLCQQGFSLENALYAVSAVRVFTLGCVLFDQELQVAKEERETPTTASMPPLLRQAWELKDHQGAEPAFLFGLELIICGLEKQLKCESGS
modifications: Sulfonylurea responsive repressor
B7: L6-4D10: library L6 clone, parent of the L8 hits (protein)
chain: MGSRLDKSKVINSALELLNEVGIEGLTTRKLAQKLGVEQPTLYWHVKNKRALLDALAIEMMDRHQTHYCPLEGESWQDFLRNNAKSMRCALLSHRDGAKVCLGTRWTEKQYESAENMLAFLCQQGFSLENALYAVSAVRVFTLGCVLFDQESQVAKEERETPTTASMPPLLRQAWELKDHQGAEPAFLFGLELIICGLEKQLKCESGS
modifications: Sulfonylurea responsive repressor
notes: library L6 clone, parent of the L8 hits
B8: L6-5G06 (protein)
chain: MGSRLDKSKVINSALELLNEVGIEGLTTRKLAQKLGVEQPTLYWHVKNKRALLDALAIEMMDRHQTHYCPLEGESWQDFLRNNAKSMRCALLSHRDGAKVCLGTRWTEQQYETAENQLAFLCQQGFSLENALYAVSAVRVFTLGCVLFDQELQVAKEERETPTTASMPPLLRQGWELKDHQGAEPAFLFGLELIICGLEKQLKCESGS
modifications: Sulfonylurea responsive repressor
B9: L6-5H06 (protein)
chain: MGSRLDKSKVINSALELLNEVGIEGLTTRKLAQKLGVEQPTLYWHVKNKRALLDALAIEMMDRHQTHICPLEGESWQDFLRNNAKSMRCALLSHRDGAKVCLGTRWTEKQYETAENMLAFLCQQGFSLENALYAVSAVRVFTLGCVLFDQELQVAKEERETPTTASMPPLVRQAWELKDHQGAEPAFLFGLELIICGLEKQLKCESGS
modifications: Sulfonylurea responsive repressor
B10: L6-2C09 (protein)
chain: MGSRLDKSKVINSALELLNEVGIEGLTTRKLAQKLGVEQPTLYWHVKNKRALLDALAIEMMDRHQTHYCPLEGESWQDFLRNTAKSMRCALLSHRDGAKVCLGTRWTEQLYETAENQLAFLCQQGFSLENALYAMSAVRVFTLGCVLFDQELQVAKEERETPTTASMPPLLRQAWELKDHQGAEPAFLFGLELIICGLEKQLKCESGS
modifications: Sulfonylurea responsive repressor
B11: L6-2D07 (protein)
chain: MGSRLDKSKVINSALELLNEVGIEGLTTRKLAQKLGVEQPTLYWHVKNKRALLDALAIEMMDRHQTHFCPLEGESWQDFLRNTAKSMRCALLSHRDGAKVCLGTRWTEQQYETAENMLAFLCQQGFSLENALYAMSAVRVFTLGCVLFDQESQVAKEERETPTTASMPPLVRQAWELKDHQGAEPAFLFGLELIICGLEKQLKCESGS
modifications: Sulfonylurea responsive repressor
B12: L6-6F07 (protein)
chain: MGSRLDKSKVINSALELLNEVGIEGLTTRKLAQKLGVEQPTLYWHVKNKRALLDALAIEMMDRHATHLCPLEGESWQDFLRNTAKSMRCALLSHRDGAKVCLGTRWTEQQYESAENMLAFLCQQGFSLENALYAMSAVRVFTLGCVLFDQESQVAKEERETPTTASMPPLLRQAWELKDHQGAEPAFLFGLELIICGLEKQLKCESGS
modifications: Sulfonylurea responsive repressor
B13: L6-5H12 (protein)
chain: MGSRLDKSKVINSALELLNEVGIEGLTTRKLAQKLGVEQPTLYWHVKNKRALLDALAIEMMDRHATHYCPLEGESWQDFLRNNAKSMRCALLSHRDGAKVCLGTRWTEKQYETAENQLAFLCQQGFSLENALYAMSAVRVFTLGCVLFDQELQVAKEERETPTTASMPPLVRQAWELKDHQGAEPAFLFGLELIICGLEKQLKCESGS
modifications: Sulfonylurea responsive repressor
B14: L1-44: first round library L1 sulfonylurea repressor parental clone (protein)
chain: MGSRLDKSKVINSALELLNEVGIEGLTTRKLAQKLGVEQPTLYWHVKNKRALLDALAIEMLDRHATHFCPLEGESWQDFLRNNAKSYRCALLSHRDGAKVYLGTAVTEKQYETAENQLAFLCQQGFSLENALYAVKAVAGFTLGCVLWDQESQVAKEERETPTTASMPPLLRQAVELADHQGAEPAFLFGLELIICGLEKQLKCESGS
modifications: Sulfonylurea responsive repressor
notes: as for B1

Assays:
[1] = system: β-gal background activity; assay: First and second round library screening (L1, L2) for induction by sulfonylurea ligands; assay type: cell-based; settings: initial screen, library L1, data not shown
From the text: The original library was designed to thifensulfuron, but once induction activity was established with other SU compounds having potentially better soil and in planta stability properties than the original ligand, the evolution process was re-directed towards these alternative ligands. Of particular interest were herbicides metsulfuron, sulfometuron, ethametsulfuron and chlorsulfuron. For this objective, parental clones L1-9, -22, -29 and -44 were chosen for further shuffling. Clone L1-9 has strong activity on both ethametsulfuron and chlorsulfuron; clone L1-22 has strong sulfometuron activity; clone L1-29 has moderate metsulfuron activity; and clone L1-44 has moderate activity on metsulfuron, ethametsulfuron and chlorsulfuron. (Data not shown.). No clones found in the initial screen were exceptionally reactive to metsulfuron. These four clones were also chosen due to their relatively strong repressor activity, showing low β-gal background activity without inducer. Strong repressor activity is important for establishing a system which is both highly sensitive to the presence of inducer, and tightly off in the absence of inducer.
Based on the sequence information from parental clones L1-9, -22, -29 and -44, two second round libraries were designed, constructed and screened. The first library, L2, consisted of a ‘family’ shuffle whereby the amino acid diversity between the selected parental clones was varied using synthetic assembly of oligonucleotides to find clones improved in responsiveness to any of the four new target ligands.
The L2 oligonucleotides were assembled, cloned and screened as per the protocol described for library L1 except that each ligand was tested at 2 ppm to increase the stringency of the assay, which is a 10-fold reduction from 1st round library screening concentration.

E. coli KM3 = assay type: cell-based; settings: for Control 84 hr (colony color intensity): M9 assay plates, no inducer (background activity), 84 hr at 30° C., ImageJ colony color intensity
Protocol: Library L6 was assembled, rescued, ligated into pVER7314, transformed into E. coli KM3 and plated out onto LB carbenicillin/kanamycin, and carbenicillin only control media as before. Library plates were then picked into 42 384-well microtiter plates (˜16,000 clones) containing 60 μl LB carbenicillin (Cb) broth per well. After overnight growth at 37° C. the cultures were stamped onto M9 assay plates containing no inducer, 0.2 ppm, and 2.0 ppm chlorsulfuron as test inducer. Following incubation at 30° C. for ˜48 hrs, putative hits responding to chlorsulfuron treatment as determined by increased blue colony color were re-arrayed into six 96-well microtiter plates and used to stamp a fresh set of M9 assay plates to confirm the above results. For a more detailed analysis of the relative induction by chlorsulfuron, digital photographs were taken of the plates after various time points of incubation at 30° C. and colony color intensity measured using the digital image analysis freeware program ImageJ (Rasband, US National Institutes of Health, Bethesda, Md., USA, rsb.info.nih.gov/ij/, 1997-2007). […] From this analysis sequence-activity relationships were derived. […] Briefly, C at position 100, and Q at positions 108 and 109 strongly correlated with activation, while R at position 138, L at position 170, and A or G at position 173 were highly preferred in clones with the lowest background activity. […] This information will aid in the design of further libraries to improve responsiveness to chlorsulfuron. […]
Library CsL3 construction and screening: Based on the IVM results the top performing residue substitutions were incorporated into library CsL3 (Table 14). The library was assembled with the oligonucleotides shown below in Table 19. The first and last primers in each set were used as rescue primers. To enable purification of hit proteins, a 6×His-tag between was added to the C-terminus of the ligand binding domain of each clone during the assembly and rescue process. The library was then inserted into pVER7334 SacI/AscI, transformed into E. coli assay strain Km3 and selected on LB+40 ug/ml Kanamycin and 50 ug/ml Carbenicillin. […] Colony color was then assessed at 24 and 96 hrs of incubation at 37° C. […] Also, while the C86M substitution was less frequent in the overall hit population it occurred in all top 26 clones.
Creating novel diversity through random mutagenesis.
Construction and screening of library CsL4.2.

Molecule | Control 84 hr (colony color intensity) (E. coli KM3) | also measured
B1 | – | sulfometuron activity [1]: strong
B2 | – | F.IND = fold induction (IND/REP) (Colony Assay Results) (E. coli KM3; CsL3 hits, 20 ppb Cs vs no inducer): 2.5
B3 | – | metsulfuron activity [1]: moderate
B4 | 6.6 | –
B5 | 5.6 | –
B6 | 5.4 | –
B7 | 5.0 | –
B8 | 7.0 | –
B9 | 5.1 | –
B10 | 5.2 | –
B11 | 5.8 | –
B12 | 5.1 | –
B13 | 5.7 | –
B14 | – | activity on chlorsulfuron [1]: moderate; activity on ethametsulfuron [1]: moderate; metsulfuron activity [1]: moderate
